Values belong to the binder of their own block, whether it stands above or below them.
Assays:
[1] = biological target: T1, human LAIR-1-Fc (human, UniProt Q6GTX8 22-165); test: ELISA blocking: plate coated with 5 µg/mL human collagen type 1, antibody titrated, 1 µg/mL biotinylated human LAIR-1-Fc, streptavidin-HRP, OD650
T1 construct: also called biotinylated human LAIR-1-Fc; not shown: a Fc region
T1 chain: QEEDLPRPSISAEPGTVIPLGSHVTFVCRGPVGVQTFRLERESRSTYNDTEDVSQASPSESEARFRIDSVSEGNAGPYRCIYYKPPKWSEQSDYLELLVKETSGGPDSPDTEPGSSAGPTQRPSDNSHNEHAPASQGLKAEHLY

[2] = biological target: T2, human LAIR-1-ECD (human, UniProt Q6GTX8 22-165); test: SPR (Biacore) as in Example 2
T2 construct: Recombinant, expressed in mammalian cells; also called extracellular region of human LAIR-1
T2 chain: T1 chain

[3] = biological target: T3, mouse LAIR-1 (form in the assay not stated) (mouse, UniProt Q8BG84 22-144, limits assumed); test: not described
T3 sequence: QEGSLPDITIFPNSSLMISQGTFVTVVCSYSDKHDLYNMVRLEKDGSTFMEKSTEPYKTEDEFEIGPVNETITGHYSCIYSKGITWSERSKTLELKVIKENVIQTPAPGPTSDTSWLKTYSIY

[4] = biological target: T4, cyno LAIR-1-CD3ζ chimeric receptor on NFAT-GFP reporter cells (cynomolgus monkey; human); test: cell-based or functional assay
T4 sequence (P20963 other isoform, or with tags, fused parts or gaps mutant limits assumed): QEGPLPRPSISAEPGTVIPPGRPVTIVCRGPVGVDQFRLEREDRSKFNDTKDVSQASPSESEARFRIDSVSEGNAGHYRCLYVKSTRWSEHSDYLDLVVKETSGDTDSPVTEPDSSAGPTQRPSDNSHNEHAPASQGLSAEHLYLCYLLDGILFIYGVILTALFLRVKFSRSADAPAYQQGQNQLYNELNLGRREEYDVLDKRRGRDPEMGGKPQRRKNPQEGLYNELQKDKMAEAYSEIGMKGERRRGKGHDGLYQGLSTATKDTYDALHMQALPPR

[5] = biological target: T5, human LAIR-1-CD3ζ chimeric receptor on NFAT-GFP reporter cells (human, UniProt P20963 31-164, limits assumed); test: cell-based or functional assay
[6] = biological target: T4, cyno LAIR-1-CD3ζ chimeric receptor on …; test: cell-based or functional assay; remark: listed apart in the source
[7] = biological target: T5, human LAIR-1-CD3ζ chimeric receptor on …; test: cell-based or functional assay; remark: listed apart in the source
[8] = biological target: T3, mouse LAIR-1 (form in the assay not …); test: SPR (Biacore)

IC50 (read off the curve) [1]: ~3 nM | Kd [2]: 1.1 nM | koff [2]: 0.00079 s⁻¹ | kon [2]: 700000 M⁻¹ s⁻¹ | binding result [3]: no binding | IC50 (read off the curve): % GFP+ cyno LAIR-1 reporter cells on coated MARCO-his [4]: ~0.2 nM | IC50 (read off the curve): % GFP+ cyno LAIR-1 reporter cells on coated collagen 1 [4]: ~0.4 nM | IC50 (read off the curve): % GFP+ cyno LAIR-1 reporter cells on coated collagen 4 [4]: ~0.2 nM | IC50 (read off the curve): % GFP+ human LAIR-1 reporter cells on coated MARCO-his [5]: ~0.05 nM | IC50 (read off the curve): % GFP+ human LAIR-1 reporter cells on coated collagen 1 [5]: ~0.04 nM | IC50 (read off the curve): % GFP+ human LAIR-1 reporter cells on coated collagen 4 [5]: ~0.03 nM | IC50 (read off the curve): % GFP+ cyno LAIR-1 reporter cells on polymerized collagen matrix [6]: ~0.2 nM | IC50 (read off the curve): % GFP+ human LAIR-1 reporter cells on polymerized collagen matrix [7]: ~0.03 nM
B1: humanized anti-LAIR-1 antibody Hz62G10.v1 (antibody, human IgG1, kappa, N297G, V domains shown)
VH: EVQLVESGGGLVKPGGSLRLSCAASGFTFNINAMNWVRQAPGKGLEWVARIRTKNNNFATYYADSVKDRFTISRDDSKNTLYLQMNSLKTEDTAVYYCVRGPYFDYWGQGTLVTVSS
VL: DIQMTQSPSSLSASVGDRVTITCLASQTIGTWLAWYQQKPGKAPKLLIYAATSLADGVPSRFSGSGSGTDFTLTISSLQPEDFATYYCQQLYSTPYTFGGGTKVEIKR
notes: Humanized 62G10

Kd [8]: 1.1 nM | koff [8]: 0.00057 s⁻¹ | kon [8]: 530000 M⁻¹ s⁻¹
B2: ch43H2 (antibody, V domains shown)
VH: EVQLVESGGGLVQPGRSLKVSCAASGFTFSNYGIHWIRQAPTKGLEWVASISPSGRSTYFRDSVKGRFTISRDNAKNTLYLQLDSLRSEDTATYYCATGINYSSFDYWGQGVMVTVSS
VL: DIVMTQSPTSMSISVGDRVTMNCKASQNVGSHVDWYQQKTGQSPKLLISTASNRYTGVPDRFTGSGSGTDFTFTINNMQTEDLAVYYCMQSNSYPPTFGGGTKLELK
notes: also called purified ch43H2

Source: patent US20220041711A1 (NGM BIOPHARMACEUTICALS, published 2022)
